Experimental data published in US20250277048A1 (Regeneron, published 2025).
Each block holds one binder with its values, some of them ahead of it.

How the values were obtained:
[1] = molecular target: T1, human CD40 (hCD40) expressed on cells (human, UniProt P25942 21-277); test: cell-based or functional assay
[2] = molecular target: T1, human CD40 (hCD40) expressed on cells; test: cell-based or functional assay; remark: listed apart in the source
[3] = molecular target: T1, human CD40 (hCD40) expressed on cells; test: cell-based or functional assay; remark: listed apart in the source
[4] = molecular target: T2, Macaca fascicularis CD40 (mfCD40) expressed on HEK293/D9/mfCD40 cells (Macaca fascicularis, UniProt G7PG38 21-278); test: flow cytometry, HEK293/D9/mfCD40 cells
T2 construct: whole, on cells; also called monkey CD40
Protocol: (§1) Cells were washed with 2% FBS (w/v) in 1×PBS (flow cytometry staining buffer) by centrifugation with benchtop Centrifuge 5810R (Eppendorf®, Hamburg, Germany). Cells were incubated for 30 minutes at 4° C. with serial dilutions of following antibodies ranging from 1.7 pM to 100 nM in flow cytometry staining buffer (1) anti-CD40×CD40 bispecific antibodies, or (2) parental anti-CD40 antibodies (bivalent antibodies comprising 2 fragment antigen-binding [Fab] arms identical to one of the two anti-CD40 Fab of bispecific anti-CD40×CD40 antibodies), or (3) anti-CD40×Irrelevant antibodies (bivalent antibodies that incorporate one Fab arm identical to one of anti-CD40 Fab of anti-CD40×CD40 antibodies and another Fab arm specific to an irrelevant antigen, i.e. birch pollen main allergen Bet v1), or (4) human IgG4 isotype control antibodies with Fc mutation. After washing, cell bound antibodies were detected with 2.5 μg/ml Allophycocyanin (APC)-conjugated goat anti-human IgG antibody specific for the Fcγ fragment (Jackson Immunoresearch, West Grove, PA) for 30 minutes at 4° C. Cells were washed and subsequently fixed with 50% solution of Cytofix™ Fixation Buffer (BD, Franklin Lakes, NJ) in flow cytometry staining buffer for 20 minutes at room temperature. Cells were washed and resuspended in flow cytometry staining buffer and stored at 4° C. for downstream flow cytometry analysis.
(§2) Acquisition of fluorescence signals were recorded on the ZE5 Cell Analyzer (Bio-Rad, Hercules, CA) according to the manufacturer's recommended procedure and flow cytometry data analysis was performed using the open-source R packages flowCore, flowStats, flowDensity, ggCyto, and flowAI. Multiplexed samples were deconvoluted and individual cell populations were identified based on their unique CellTrace™ fluorescence signature. APC Median Fluorescence intensity (MFI) was recorded to indicate the binding intensity of each antibody over a range of concentrations. Antibodies with MFI greater than 1500 at the highest tested concentration (100 nM) were classified as specific binders. In addition, direct binding signals (APC MFI) were analyzed as a function of the antibody concentration and data were fitted with a sigmoidal (four-parameter logistic) dose-response model using GraphPad Prism™ software.

[5] = molecular target: T3, human CD40 extracellular domain expressed with a C-terminal myc-myc-hexahistidine tag (human); test: ELISA blocking of 40 nM hCD40-mmH binding to 9His-hCD40L
T3 construct: also called hCD40-MMH; hCD40-mmH
Description: An ELISA-based blocking assay was developed to determine the ability of C40×CD40 bispecific antibodies to block the binding of the hCD40 monomer to plate-coated hCD40L. The recombinant human CD40-mmH protein (hCD40-MMH; REGN3094; SEQ ID NO: 53) used in the experiments comprises a portion of the human CD40 extracellular domain (amino acids P20-R193) fused to 2×Myc peptide and 6×histadine (SEQ ID NO: 1110) at the C-terminus of human CD40, and the human CD40L (accession #NM_000074.2) with amino acids E108-L261 of the extracellular domain with 9×His-2×(SGGG)-IGER at the N-terminus (9His-hCD40L) was commercially obtained from Biolegend.
In the blocking assay, 9His-hCD40L was passively absorbed at a concentration of 5 μg/mL in PBS on a 96-well microtiter plate overnight at 4° C. […] In a separate 96-well microtiter plate, a fixed amount of 40 nM hCD40-mmH was pre-mixed with one of the following antibodies, at concentrations ranging from 977 pM to 1 μM in PBS+0.5% BSA: (1) CD40×CD40 bispecific antibodies (REGN16431, REGN16432, REGN16634, and REGN16335); (2) parental CD40 mAbs (bivalent antibodies comprising 2 fragment antigen-binding [Fab] arms identical to one of anti-CD40 Fab of CD40×CD40 antibodies); (3) CD40×Irrelevant antibodies (bivalent antibodies that incorporate one Fab arm identical to one of anti-CD40 Fab of CD40×CD40 antibodies and another Fab arm specific to an irrelevant antigen); and (4) human IgG4 with Fc mutation isotype control antibodies (REGN7540 and REGN4513). The fixed concentration of hCD40-mmH was selected to be near the concentration (EC₅₀ value) that generated 50% of the maximal binding to the plate-adhered 9His-hCD40L. After one-hour incubation, the antibody-antigen complexes were transferred to the microtiter plate coated with 9His-hCD40L. After one hour incubation at room temperature, the plates were washed, and plate-bound hCD40-mmH protein was detected with horseradish peroxidase (HRP) conjugated goat anti-c-Myc antibody. The plates were then developed using TMB substrate solution (BD Biosciences) according to the manufacturer's recommended procedure and the absorbance at 450 nm (OD₄₅₀) was measured on a SpectraMax i3×plate reader.

[6] = molecular target: T1, human CD40 (hCD40) expressed on cells; test: cell-based or functional assay; remark: listed apart in the source
[7] = molecular target: T1, human CD40 (hCD40) expressed on cells; test: cell-based or functional assay; remark: listed apart in the source
[8] = molecular target: T1, human CD40 (hCD40) expressed on cells; test: flow cytometry, HEK293/D9/hCD40 cells
Protocol: as §1, §2

[9] = molecular target: T1, human CD40 (hCD40) expressed on cells; test: cell-based or functional assay; remark: listed apart in the source
[10] = molecular target: T1, human CD40 (hCD40) expressed on cells; test: cell-based or functional assay; remark: listed apart in the source
[11] = molecular target: T1, human CD40 (hCD40) expressed on cells; test: cell-based or functional assay; remark: listed apart in the source
[12] = molecular target: T1, human CD40 (hCD40) expressed on cells; test: cell-based or functional assay; remark: listed apart in the source
[13] = molecular target: T1, human CD40 (hCD40) expressed on cells; test: flow cytometry, Ramos 2G6.4C10 cells
Protocol: as §1, §2

T1 sequence (P25942 21-277): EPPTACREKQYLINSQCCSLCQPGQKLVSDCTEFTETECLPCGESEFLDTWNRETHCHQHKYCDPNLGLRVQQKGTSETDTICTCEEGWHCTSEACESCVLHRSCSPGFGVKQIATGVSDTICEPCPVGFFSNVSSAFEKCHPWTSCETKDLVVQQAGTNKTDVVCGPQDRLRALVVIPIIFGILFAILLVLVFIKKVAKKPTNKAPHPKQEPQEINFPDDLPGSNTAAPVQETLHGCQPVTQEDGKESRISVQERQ
T3 sequence (chain, as listed by the source limits assumed): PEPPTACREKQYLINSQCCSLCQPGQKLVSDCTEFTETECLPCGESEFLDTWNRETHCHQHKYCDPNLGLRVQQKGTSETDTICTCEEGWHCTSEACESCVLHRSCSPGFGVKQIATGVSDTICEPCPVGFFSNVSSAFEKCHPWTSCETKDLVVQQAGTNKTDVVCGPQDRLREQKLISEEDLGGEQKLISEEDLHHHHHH

% max blockade relative to no mAb, TNFa, assay #2 donor 1 [1]: 62.8%
% max blockade relative to no mAb, TNFa, assay #2 donor 2 [1]: 51.1%
IC50, 500 pM hCD40L, Ramos NFkB-luc [2]: 6.93e-11 M
Max % activation, no ligand, Ramos NFkB-luc [2]: 6%
Max % inhibition, 500 pM hCD40L, Ramos NFkB-luc [2]: 91%
% max blockade relative to no mAb, IL-6, assay #2 donor 1 [3]: 88.9%
% max blockade relative to no mAb, IL-6, assay #2 donor 2 [3]: 89.2%
EC50 [4]: 9.1 nM
MFI at 100 nM [4]: 41700 MFI
% Blocking at 1 uM mAb [5]: 98%
IC50 [5]: 32 nM
% max blockade relative to no mAb, IL-6, donor 1 [6]: 84.5%
% max blockade relative to no mAb, IL-6, donor 2 [6]: 92%
% max blockade relative to no mAb, IL-6, donor 3 [6]: 92%
% max blockade relative to no mAb, IL-10, assay #2 donor 1 [7]: 87.7%
% max blockade relative to no mAb, IL-10, assay #2 donor 2 [7]: 89.9%
EC50 [8]: 2 nM
MFI at 100 nM [8]: 29000 MFI
IC50, 900 pM hCD40L, Raji NFkB-luc [9]: 5.76e-11 M
Max % activation, no ligand, Raji NFkB-luc [9]: 13%
Max % inhibition, 900 pM hCD40L, Raji NFkB-luc [9]: 113%
% max blockade relative to no mAb, IL-10, donor 1 [10]: 74.2%
% max blockade relative to no mAb, IL-10, donor 2 [10]: 91.4%
% max blockade relative to no mAb, IL-10, donor 3 [10]: 92.4%
% max blockade relative to no mAb, TNFa, donor 1 [11]: 44%
% max blockade relative to no mAb, TNFa, donor 2 [11]: 63.5%
% max blockade relative to no mAb, TNFa, donor 3 [11]: 68.5%
IC50, 10 nM hCD40L, THP-1 NFkB-luc [12]: 553 pM
Max % activation, no ligand, THP-1 NFkB-luc [12]: 1%
Max % inhibition, 10 nM hCD40L, THP-1 NFkB-luc [12]: 98%
EC50 [13]: 2 nM
MFI at 100 nM [13]: 3760 MFI
B1: REGN16334 (bispecific antibody, human IgG4 S228P, kappa)
heavy 1: QLQLQESGPGLVRPSETLSLTCSVSGASMNTNNYYWGWIRQPPGKGLEWIGSGYYNGNTYYNPSLKSRVTISVDTSKNQFSLKLNSVTAADTAVYYCARQTPPRIIGSPNIWGQGTMVTVSSASTKGPSVFPLAPCSRSTSESTAALGCLVKDYFPEPVTVSWNSGALTSGVHTFPAVLQSSGLYSLSSVVTVPSSSLGTKTYTCNVDHKPSNTKVDKRVESKYGPPCPPCPAPGGGGPSVFLFPPKPKDTLMISRTPEVTCVVVDVSQEDPEVQFNWYVDGVEVHNAKTKPREEQFNSTYRVVSVLTVLHQDWLNGKEYKCKVSNKGLPSSIEKTISKAKGQPREPQVYTLPPSQEEMTKNQVSLTCLVKGFYPSDIAVEWESNGQPENNYKTTPPVLDSDGSFFLYSRLTVDKSRWQEGNVFSCSVMHEALHNHYTQKSLSLSLGK
heavy 2: EVQLVESGGGLVQPGGSLRLSCAASGFTFGSYGMAWVRQAPGKGLEWVSAISGSGDYTNYADSVKRRFTISRDNSKNTLYLQMSSLRAEDTAVYYCAKEKTGTTGYLYSGMDVWGQGTTVTVSSASTKGPSVFPLAPCSRSTSESTAALGCLVKDYFPEPVTVSWNSGALTSGVHTFPAVLQSSGLYSLSSVVTVPSSSLGTKTYTCNVDHKPSNTKVDKRVESKYGPPCPPCPAPGGGGPSVFLFPPKPKDTLMISRTPEVTCVVVDVSQEDPEVQFNWYVDGVEVHNAKTKPREEQFNSTYRVVSVLTVLHQDWLNGKEYKCKVSNKGLPSSIEKTISKAKGQPREPQVYTLPPSQEEMTKNQVSLTCLVKGFYPSDIAVEWESNGQPENNYKTTPPVLDSDGSFFLYSRLTVDKSRWQEGNVFSCSVMHEALHNRFTQKSLSLSPGK
light: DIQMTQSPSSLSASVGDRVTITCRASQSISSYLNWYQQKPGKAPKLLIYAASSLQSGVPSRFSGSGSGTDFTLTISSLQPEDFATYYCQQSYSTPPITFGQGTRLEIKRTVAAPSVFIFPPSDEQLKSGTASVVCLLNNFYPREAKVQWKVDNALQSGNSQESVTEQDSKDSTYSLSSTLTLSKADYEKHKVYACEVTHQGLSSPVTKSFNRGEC
notes: D1 arm from 21519P2, D2 arm from 21520P2, common light chain; also called CD40xCD40 (21519 x 21520)

% max blockade relative to no mAb, TNFa, assay #2 donor 1 [1]: 62.4%
% max blockade relative to no mAb, TNFa, assay #2 donor 2 [1]: 52.5%
IC50, 500 pM hCD40L, Ramos NFkB-luc [2]: 3.86e-11 M
Max % activation, no ligand, Ramos NFkB-luc [2]: 5%
Max % inhibition, 500 pM hCD40L, Ramos NFkB-luc [2]: 93%
% max blockade relative to no mAb, IL-6, assay #2 donor 1 [3]: 88.4%
% max blockade relative to no mAb, IL-6, assay #2 donor 2 [3]: 87%
EC50 [4]: 2.4 nM
MFI at 100 nM [4]: 47300 MFI
% Blocking at 1 uM mAb [5]: 96%
IC50 [5]: 32 nM
% max blockade relative to no mAb, IL-6, donor 1 [6]: 83.2%
% max blockade relative to no mAb, IL-6, donor 2 [6]: 91.4%
% max blockade relative to no mAb, IL-6, donor 3 [6]: 91.4%
% max blockade relative to no mAb, IL-10, assay #2 donor 1 [7]: 88.5%
% max blockade relative to no mAb, IL-10, assay #2 donor 2 [7]: 87.8%
EC50 [8]: 1.6 nM
MFI at 100 nM [8]: 28900 MFI
IC50, 900 pM hCD40L, Raji NFkB-luc [9]: 4.94e-11 M
Max % activation, no ligand, Raji NFkB-luc [9]: 9%
Max % inhibition, 900 pM hCD40L, Raji NFkB-luc [9]: 102%
% max blockade relative to no mAb, IL-10, donor 1 [10]: 78.5%
% max blockade relative to no mAb, IL-10, donor 2 [10]: 93.6%
% max blockade relative to no mAb, IL-10, donor 3 [10]: 89.8%
% max blockade relative to no mAb, TNFa, donor 1 [11]: 45%
% max blockade relative to no mAb, TNFa, donor 2 [11]: 64.7%
% max blockade relative to no mAb, TNFa, donor 3 [11]: 61.6%
IC50, 10 nM hCD40L, THP-1 NFkB-luc [12]: 221 pM
Max % activation, no ligand, THP-1 NFkB-luc [12]: 3%
Max % inhibition, 10 nM hCD40L, THP-1 NFkB-luc [12]: 98%
EC50 [13]: 1 nM
MFI at 100 nM [13]: 3750 MFI
B2: REGN16335 (bispecific antibody, human IgG4 S228P, kappa)
heavy 1: EVQLVESGGGLVQPGGSLRLSCAASGFTFSSYAMNWVRQAPGKGLEWVSIISGTIGKTYYADSVKGRFTISRDNSKNTLYLQMNSLRGEDTAVYYCAKDTERDITGSPFDYWGQGTLVTVSSASTKGPSVFPLAPCSRSTSESTAALGCLVKDYFPEPVTVSWNSGALTSGVHTFPAVLQSSGLYSLSSVVTVPSSSLGTKTYTCNVDHKPSNTKVDKRVESKYGPPCPPCPAPGGGGPSVFLFPPKPKDTLMISRTPEVTCVVVDVSQEDPEVQFNWYVDGVEVHNAKTKPREEQFNSTYRVVSVLTVLHQDWLNGKEYKCKVSNKGLPSSIEKTISKAKGQPREPQVYTLPPSQEEMTKNQVSLTCLVKGFYPSDIAVEWESNGQPENNYKTTPPVLDSDGSFFLYSRLTVDKSRWQEGNVFSCSVMHEALHNHYTQKSLSLSLGK
heavy 2: B1 heavy 2
light: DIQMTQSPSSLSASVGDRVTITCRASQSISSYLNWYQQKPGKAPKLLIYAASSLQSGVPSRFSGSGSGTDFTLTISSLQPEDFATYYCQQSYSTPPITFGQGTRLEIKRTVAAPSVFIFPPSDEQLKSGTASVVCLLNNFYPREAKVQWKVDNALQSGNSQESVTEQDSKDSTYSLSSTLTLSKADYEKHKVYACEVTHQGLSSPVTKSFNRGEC
notes: D1 arm from 30027P2, D2 arm from 21520P2, common light chain; also called CD40xCD40 (30027 x 21520)
